Experimental data from patent US20230235054A1 (BIOATLA, published 2023).
Residue numbers refer to the chain shown, from its start.

T1: huNectin4-His (human, UniProt Q96NY8 32-349)
T1 construct: Immobilized on the SPR chip; also called humanNectin4; human Nectin4; not shown: His tag
T1 sequence (looked up): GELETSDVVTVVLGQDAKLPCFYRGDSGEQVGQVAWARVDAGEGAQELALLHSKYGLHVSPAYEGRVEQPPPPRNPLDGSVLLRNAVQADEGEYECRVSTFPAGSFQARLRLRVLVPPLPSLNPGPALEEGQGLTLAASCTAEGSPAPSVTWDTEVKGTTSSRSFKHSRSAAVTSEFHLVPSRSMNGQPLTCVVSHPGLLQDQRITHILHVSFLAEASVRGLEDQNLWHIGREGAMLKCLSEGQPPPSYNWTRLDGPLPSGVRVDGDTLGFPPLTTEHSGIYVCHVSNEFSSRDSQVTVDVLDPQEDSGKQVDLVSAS

T2: cyno Nectin-4 on cells (cyno, UniProt A0A2K5WES1 32-510)
T2 construct: whole, on cells; also called HEK293 cells expressing cyno Nectin-4; cyno Nectin-4 cells
T2 sequence: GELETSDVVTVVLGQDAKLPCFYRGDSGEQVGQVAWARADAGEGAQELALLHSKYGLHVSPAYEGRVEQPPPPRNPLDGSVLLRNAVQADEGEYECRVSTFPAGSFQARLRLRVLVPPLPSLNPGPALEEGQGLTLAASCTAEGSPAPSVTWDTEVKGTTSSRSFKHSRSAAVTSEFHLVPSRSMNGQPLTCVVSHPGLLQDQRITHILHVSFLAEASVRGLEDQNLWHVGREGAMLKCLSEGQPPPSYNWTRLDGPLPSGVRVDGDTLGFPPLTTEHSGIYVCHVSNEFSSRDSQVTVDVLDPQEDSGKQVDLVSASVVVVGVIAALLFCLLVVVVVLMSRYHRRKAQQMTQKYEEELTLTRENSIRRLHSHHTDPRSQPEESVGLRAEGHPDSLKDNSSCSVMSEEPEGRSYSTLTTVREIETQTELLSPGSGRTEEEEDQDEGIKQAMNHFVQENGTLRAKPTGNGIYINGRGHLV

T3: recombinant human Nectin4 antigen (human, UniProt Q96NY8 32-349)
T3 construct: construct not described
T3 sequence (looked up): T1 sequence (looked up)

B1: BAP-143-wildtype (antibody, V domains shown)
VH: EVQLVESGGGLVQPGGSLRLSCAASGFTFSSYNMNWVRQAPGKGLEWVSYISSSSSTIYYADSVKGRFTISRDNAKNSLSLQMNSLRDEDTAVYYCARAYYYGMDVWGQGTTVTVSS
VL: DIQMTQSPSSVSASVGDRVTITCRASQGISGWLAWYQQKPGKAPKFLIYAASTLQSGVPSRFSGSGSGTDFTLTISSLQPEDFATYYCQQANSFPPTFGGGTKVEIK
notes: 150 kDa used in SPR; also called BAP143-00-00; benchmark (BM)
B2: BAP-143-00-01 (antibody, V domains shown)
VH: B1 VH
VL: B1 VL with L33E
notes: Used as a conjugate with a linker payload (CAB ADC)
B3: BAP-143-00-06 (antibody, V domains shown)
VH: B1 VH with M104D
VL: B1 VL
notes: as for B2
B4: BAP-143-00-03 (antibody, V domains shown)
VH: B1 VH
VL: B1 VL with P96D
notes: as for B2
B5: BAP-143-00-04 (antibody, V domains shown)
VH: B1 VH with M34D
VL: B1 VL
notes: as for B2
B6: BAP-143-00-05 (antibody, V domains shown)
VH: B1 VH with R98E
VL: B1 VL
notes: as for B2
B7: BAP-143-00-02 (antibody, V domains shown)
VH: B1 VH
VL: B1 VL with F94E
notes: as for B2

target: T1, huNectin4-His; assay: SPR, huNectin4-His immobilized, pH 7.4
Protocol: Binding kinetics of anti-Nectin4 antibodies were measured by surface plasmon resonance using a SPR2/4 instrument (Sierra Sensors, Hamburg, Germany) and flat amine sensor chips. The SPR sensor contained four flow cells (FC1-FC4), each of which was addressed individually or in groups. huNectin4-His was immobilized in FC2, and cynoNectin4-mFc in FC4. No protein was immobilized in FC1 and FC3 which were used as control surfaces for FC2 and FC4, respectively.
All injections were done at a flow rate of 25 μL/min at 25° C. The sensor surface was activated with 1-ethyl-3-(3-dimethylaminopropyl)-carbodiimide (EDC) and N-hydroxysuccinimide (NHS) (200 mM/50 mM) for 480 seconds. HuNectin4-His (2 μg/mL in 10 mM NaAc, pH4.5) was injected for 480s and the surface was inactivated by injecting 1M ethanolamine-HCl for 480s. CynoNectin4 was immobilized using the same conditions as described for huNectin4-His, except that the cynoNectin4 was diluted into 10 mM NaAc buffer having pH 5.0. The control surface was activated and deactivated using the same conditions, but without injecting protein. PBST buffer (PBS pH 7.4 with 0.05% TWEEN20™) was used as running buffer for the surface preparation. The running solution was switched to PBST with 30 mM sodium bicarbonate with the pH adjusted as indicated in the figures before the analyte injections. The instrument was equilibrated with the running solution for one hour before the first analyte injection.
The off-rate was measured for 360s. The chip surface was regenerated after each cycle of interaction analysis by injecting 6 μL of 10 mM glycine (pH 2.0). Flow cells 1 and 3 without immobilized protein were used as control surfaces for reference subtraction.

| Kd [nM] | koff [s⁻¹] | kon [M⁻¹ s⁻¹] | Binder |
| --- | --- | --- | --- |
| 0.943 | – | – | B1 |
| 3.89 | 0.00267 | 686000 | B2 |
| 0.406 | 0.00143 | 3.52e+06 | B3 |
| 2.45 | 0.0032 | 1.31e+06 | B4 |
| 1.42 | 0.00525 | 3.71e+06 | B5 |
| 5.09 | 0.0062 | 1.22e+06 | B6 |

target: T2, cyno Nectin-4 on cells; assay: FACS, HEK293 cells expressing cyno Nectin-4

| Ratio (pH 7.4/6.0) of EC50 | Binder |
| --- | --- |
| 1.7 | B1 |
| 2.3 | B7 |
| 4.1 | B2 |
| 3.2 | B3 |
| 3.6 | B4 |
| 2.1 | B5 |
| 2.5 | B6 |

target: T3, recombinant human Nectin4 antigen; assay: ELISA, coated antigen, PSB pH 6.0
Protocol: 1) Coat ELISA plates with 100 μL of 1 μg/mL recombinant human Nectin4 antigen or cynoNectin4 antigen in carbonate-bicarbonate coating buffer. […] 2) Cover plates with sealing film and incubate overnight at 4° C. [0444] 3) Decant plates and tap out residual liquid on a stack of paper towels. [0445] 4) Wash wells twice by dispensing 200 μL of pH 6.0 or pH 7.4 ELISA incubation buffer to the wells and completely aspirate the contents. [0446] 5) Add 200 μL of pH 6.0 or pH 7.4 ELISA incubation buffer to the wells. Cover with sealing film and place the plate onto a plate shaker set to 50 rpm for 60 minutes at room temperature. [0447] 6) Decant plates and tap out residual liquid on a stack of paper towels. […] 7) Serially dilute test articles in 3-fold dilutions starting at 3000 ng/mL in pH 6.0 or pH 7.4 ELISA incubation buffer. […] 8) Add 100 μL/well of diluted test articles to the plates [0450] 9) Cover with sealing film and place the plates onto a plate shaker set to 50 rpm for 60 minutes at room temperature. [0451] 10) Decant plates and tap out residual liquid on a stack of paper towels. [0452] 11) Wash wells three times by dispensing 200 μL of pH 6.0 or pH 7.4 ELISA wash buffer to the wells and completely aspirate the contents. […] 12) Dilute the HRP secondary antibody at 1:2500 in pH 6.0 or pH 7.4 ELISA incubation buffer. [0454] […] 14) Cover with sealing film and place the plates onto a plate shaker set to 50 rpm for 60 minutes at room temperature. […] 15) Decant plates and tap out residual liquid on a stack of paper towels. […] 16) Wash wells three times by dispensing 200 μL of pH 6.0 or pH 7.4 ELISA wash buffer to the wells and completely aspirate the contents. [0458] 17) Dispense 50 μL per well of the TMB substrate solution into all wells of the plates.

| EC50 [µg/mL] | Binder |
| --- | --- |
| 0.0316 | B1 |
| 0.0876 | B7 |
| 0.0313 | B2 |
| 0.0247 | B3 |
| 0.0344 | B4 |
| 0.0258 | B5 |
| 0.0441 | B6 |
